Target: HA ectodomain of B/Florida/4/2006 (influenza B virus B/Florida/4/2006 (Yamagata lineage))
Experiment: negative stain EM reconstruction

“HA ectodomain of B/Florida/4/2006 (domain or fragment)” was tested, and the stoichiometry N was 3.

From paper PMC3538841
